Laboratory results: patent US20090081238A1 (Genentech, published 2009)

Legend:
[1] = biological target: T1, mFLAG-EGF34+NRR-His6, the mouse Notch1 NRR immunogen (Notch1 V1307-Q1723) (mouse, UniProt Q01705 1307-1723); assay: SPR (BIAcore-3000), IgG captured by anti-human IgG, NRR1-ECD injected 3.9-500 nM, 25 C
T1 construct: the rest carries an N-terminal FLAG tag and a C-terminal His tag; also called mNotch1 NRR; murine NRR1
Method: (§1) To further characterize the binding affinity and binding kinetics of the anti-Notch1 NRR Mabs, surface plasmon resonance (SRP) measurement with a BIAcore™-3000 was used (BIAcore, Inc., Piscataway, N.J.). Briefly, carboxymethylated dextran biosensor chips (CM5, BIAcore Inc.) were activated with N-ethyl-N′-(3-dimethylaminopropyl)-carbodiimide hydrochloride (EDC) and N-hydroxysuccinimide (NHS) according to the supplier's instructions. Rabbit anti human antibody (Pierce) was diluted with 100 mM sodium acetate, pH 4.8, into 20 μg/ml before injection at a flow rate of 5 μl/minute to achieve approximately 3000 response units (RU) of coupled antibody. Next, 1M ethanolamine was injected to block unreacted groups. Anti-NRR1 mab (formatted as a full-length IgG) was captured by rabbit anti-human IgG coated on the chips to achieve approximately 200 response units (RU). For kinetics measurements, two-fold serial dilutions of human NRR1-ECD or murine NRR1-ECD proteins (3.9 nM to 500 nM) were injected in PBT buffer (PBS with 0.05% Tween 20) at 25° C. with a flow rate of 30 μl/min. Association rates (kₒₙ) and dissociation rates (koff) were calculated using a simple one-to-one Langmuir binding model (BIAcore Evaluation Software version 3.2). The equilibrium dissociation constant (KD) was calculated as the ratio koff/kₒₙ.

[2] = biological target: T2, hFLAG-EGF34+NRR-His6 (101V), the human Notch1 NRR immunogen (Notch1 V1307-Q1733) (human, UniProt P46531 1307-1733); assay: as above
T2 construct: also called hNotch1 NRR; human NRR1
T2 sequence (P46531 other isoform, or with tags, fused parts or gaps limits assumed): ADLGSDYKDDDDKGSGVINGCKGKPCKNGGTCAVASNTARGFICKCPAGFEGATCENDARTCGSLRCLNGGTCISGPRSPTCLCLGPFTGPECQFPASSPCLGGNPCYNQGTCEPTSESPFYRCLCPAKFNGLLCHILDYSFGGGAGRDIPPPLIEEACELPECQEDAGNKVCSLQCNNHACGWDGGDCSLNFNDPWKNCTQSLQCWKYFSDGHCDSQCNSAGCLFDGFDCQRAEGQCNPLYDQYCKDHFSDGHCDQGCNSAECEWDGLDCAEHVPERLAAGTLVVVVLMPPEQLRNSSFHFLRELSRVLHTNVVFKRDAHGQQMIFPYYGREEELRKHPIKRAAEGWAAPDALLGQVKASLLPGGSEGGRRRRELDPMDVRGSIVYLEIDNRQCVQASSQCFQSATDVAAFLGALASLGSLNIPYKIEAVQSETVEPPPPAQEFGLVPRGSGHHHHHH
Method: as §1

[3] = biological target: T1, mFLAG-EGF34+NRR-His6, the mouse Notch1 …; assay: ELISA, target coated on the plate at 1 ug/ml, IgG titrated in 3-fold steps, detected with peroxidase anti-human Fab; A630
Method: (§2) 1 μg/ml of proteins in PBS, pH 7.4, were coated on ELISA plates (Nunc Maxisorp) at 4° C. overnight. Plates were blocked with Casein blocker in PBS (phosphate buffered saline; Pierce) for one hour at room temperature. Serial 3-fold dilutions of anti Notch1 NRR IgGs or irrelevant IgG in PBST buffer (PBT buffer (PBS+0.05% (v/v) Tween 20) with 0.5% (w/v) BSA) were added to the plates and incubated for one hour at room temperature. The plates were then washed with PBST and bound antibodies were detected with peroxidase-conjugated goat anti human Fab specific IgG (Sigma). TMB substrate (3,3′,5,5′-etramethylbenzidine) was used and absorbance at 650 nm was read using a standard ELISA plate reader. Absorbance was plotted against concentrations of IgGs using KaleidaGraph (Synergy Software).

[4] = biological target: T2, hFLAG-EGF34+NRR-His6 (101V), the human …; assay: as above
Method: as §2

hFLAG-NRR-His6 (102V) = biological target: T3, hFLAG-NRR-His6 (102V) (human, UniProt P46531 1447-1733); assay: as above
T3 construct: no EGF-like repeats; not shown: FLAG tag; thrombin cleavage site and HIS tag
T3 sequence (P46531 1447-1733): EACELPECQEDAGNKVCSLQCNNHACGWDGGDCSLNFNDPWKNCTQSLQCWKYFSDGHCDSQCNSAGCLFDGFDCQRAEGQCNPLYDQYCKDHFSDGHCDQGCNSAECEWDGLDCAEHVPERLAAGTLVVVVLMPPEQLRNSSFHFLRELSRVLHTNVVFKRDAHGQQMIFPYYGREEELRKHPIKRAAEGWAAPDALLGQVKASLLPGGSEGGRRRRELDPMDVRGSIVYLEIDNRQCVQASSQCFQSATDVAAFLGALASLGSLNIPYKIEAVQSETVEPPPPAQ
Method: as §2

[5] = biological target: mEGF34+NRR-L1597H-FLAG-TEV-Fc (mouse) (UniProt Q01705); assay: as above
mEGF34+NRR-L1597H-FLAG-TEV-Fc (mouse), sequence (Q01705 1307-1723, stated change not applied): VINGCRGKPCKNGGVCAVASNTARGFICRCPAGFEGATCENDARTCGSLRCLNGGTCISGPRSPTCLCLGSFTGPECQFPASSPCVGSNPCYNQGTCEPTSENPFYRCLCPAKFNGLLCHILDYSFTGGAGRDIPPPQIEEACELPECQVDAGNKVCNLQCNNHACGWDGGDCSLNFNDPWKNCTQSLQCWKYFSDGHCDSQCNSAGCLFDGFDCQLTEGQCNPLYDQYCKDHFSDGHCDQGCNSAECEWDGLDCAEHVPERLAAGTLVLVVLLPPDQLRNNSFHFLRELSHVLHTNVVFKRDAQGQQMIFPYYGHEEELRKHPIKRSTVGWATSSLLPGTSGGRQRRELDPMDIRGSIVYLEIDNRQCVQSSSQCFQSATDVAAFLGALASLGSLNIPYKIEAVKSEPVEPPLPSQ

[6] = biological target: T1, mFLAG-EGF34+NRR-His6, the mouse Notch1 …; assay: competitive phage-binding ELISA: phage-displayed Fab, soluble NRR1 titrated against coated NRR1
Method: (§3) To identify the phage antibodies that bound to both human and murine Notch1 NRR, all unique clones were tested for binding to human and murine Notch1 by ELISA. The affinities of phage antibodies were ranked using single spot competition ELISA as described below in this Example. The phage antibody IC50 values were further determined using competitive phage-binding ELISA essentially described in Lee, C. V., et al. (2004) J Mol Biol 340, 1073-93. Briefly, NUNC 96 well Maxisorp immunoplates were coated overnight at 4° C. with 1 μg/ml human NRR1 or murine NRR1, and were blocked for 1 hour at room temperature with blocking buffer PBST (PBS and 1% BSA and 0.05% Tween 20). Phage was mixed with serial dilution of human or murine NRR1 at room temperature for 1 hour before the mixture was added to human and murine NRR1 coated plate. Bound phage were detected with anti-M13 HRP conjugates, developed with TMB substrate for approximately 5 minutes, quenched with 1M H₃PO₄, and read spectrophotometrically at 450 nm.

[7] = biological target: T2, hFLAG-EGF34+NRR-His6 (101V), the human …; assay: as above
Method: as §3

T1 sequence (Q01705 other isoform, or with tags, fused parts or gaps): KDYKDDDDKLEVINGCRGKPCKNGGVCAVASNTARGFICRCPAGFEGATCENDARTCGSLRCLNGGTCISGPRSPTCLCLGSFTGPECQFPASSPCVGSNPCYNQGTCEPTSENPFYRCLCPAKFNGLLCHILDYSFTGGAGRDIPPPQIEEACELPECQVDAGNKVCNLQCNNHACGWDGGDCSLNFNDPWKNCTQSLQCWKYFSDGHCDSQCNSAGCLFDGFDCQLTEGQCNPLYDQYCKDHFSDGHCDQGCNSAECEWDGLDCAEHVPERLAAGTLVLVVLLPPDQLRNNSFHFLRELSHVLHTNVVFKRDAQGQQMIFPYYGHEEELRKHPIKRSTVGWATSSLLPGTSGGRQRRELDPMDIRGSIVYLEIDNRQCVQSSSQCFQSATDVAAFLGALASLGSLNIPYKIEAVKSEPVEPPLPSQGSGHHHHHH

B1: Antibody A-1 (antibody, V domains shown)
VH: EVQLVESGGGLVQPGGSLRLSCAASGFTFSSYWIHWVRQAPGKGLEWVARINPPNGSAHYADSVKGRFTISADTSKNTAYLQMNSLRAEDTAVYYCARGSGFRWVMDYWGQGTLVTVSS
VL: DIQMTQSPSSLSASVGDRVTITCRASQDVSTAVAWYQQKPDGTVKLLIYSASFLYSGVPSRFSGSGSGTDFTLTISSLQPEDFATYYCQQSYTTPATFGQGTKVEIKR
notes: also called Antibody A-1-hIgG1
Kd [1]: 3.88 nM | koff [1]: 0.00033 s⁻¹ | kon [1]: 85000 M⁻¹ s⁻¹ | Kd [2]: 3.43 nM | koff [2]: 0.00023 s⁻¹ | kon [2]: 67000 M⁻¹ s⁻¹ | EC50 (read off the curve) [3]: ~0.07 µg/mL | EC50 (read off the curve) [4]: ~0.2 µg/mL | EC50 (read off the curve) (hFLAG-NRR-His6 (102V)): ~0.1 µg/mL | EC50 (read off the curve) [5]: 0.06 µg/mL

B2: Antibody A-1 (phage-displayed Fab clone) (Fab, V domains shown)
VH: EVQLVESGGGLVQPGGSLRLSCAASGFTFSSYWIHWVRQAPGKGLEWVARINPPNGSAHYADSVKGRFTISADTSKNTAYLQMNSLRAEDTAVYYCARGSGFRWVMDYWGQGTLVTVSS
VL: DIQMTQSPSSLSASVGDRVTITCRASQDVSTAVAWYQQKPDGTVKLLIYSASFLYSGVPSRFSGSGSGTDFTLTISSLQPEDFATYYCQQSYTTPATFGQGTKVEIKR
IC50 [6]: 0.6 nM | IC50 [7]: 0.8 nM

B3: Antibody A-3 (phage-displayed Fab clone) (Fab, V domains shown)
VH: EVQLVESGGGLVQPGGSLRLSCAASGFTFSSYWIHWVRQAPGKGLEWVARINPANGSTRYADSVKGRFTISADTSKNTAYLQMNSLRAEDTAVYYCARGSGFRWVMDYWGQGTLVTVSS
VL: DIQMTQSPSSLSASVGDRVTITCRASQDVSTAVAWYQQKPDGTVKLLIYSASFLYSGVPSRFSGSGSGTDFTLTISSLQPEDFATYYCQQSFSTPATFGQGTKVEIK
IC50 [6]: 2.5 nM | IC50 [7]: 0.5 nM

B4: Antibody A-3 (antibody, V domains shown)
VH: EVQLVESGGGLVQPGGSLRLSCAASGFTFSSYWIHWVRQAPGKGLEWVARINPANGSTRYADSVKGRFTISADTSKNTAYLQMNSLRAEDTAVYYCARGSGFRWVMDYWGQGTLVTVSS
VL: DIQMTQSPSSLSASVGDRVTITCRASQDVSTAVAWYQQKPDGTVKLLIYSASFLYSGVPSRFSGSGSGTDFTLTISSLQPEDFATYYCQQSFSTPATFGQGTKVEIK
Kd [1]: 13 nM | koff [1]: 0.0012 s⁻¹ | kon [1]: 92000 M⁻¹ s⁻¹ | Kd [2]: 5.88 nM | koff [2]: 0.0004 s⁻¹ | kon [2]: 68000 M⁻¹ s⁻¹

B5: Antibody A-2 (antibody, V domains shown)
VH: EVQLVESGGGLVQPGGSLRLSCAASGFTFSSYWIHWVRQAPGKGLEWVARINPPNRSNQYADSVKGRFTISADTSKNTAYLQMNSLRAEDTAVYYCARGSGFRWVMDYWGQGTLVTVSS
VL: DIQMTQSPSSLSASVGDRVTITCRASQDVSTAVAWYQQKPDGTVKLLIYSASFLYSGVPSRFSGSGSGTDFTLTISSLQPEDFATYYCQQFYTTPSTFGQGTKVEIKR
notes: also called Antibody A-2-hIgG1
Kd [1]: 3.09 nM | koff [1]: 0.00034 s⁻¹ | kon [1]: 110000 M⁻¹ s⁻¹ | Kd [2]: 2.53 nM | koff [2]: 0.00022 s⁻¹ | kon [2]: 87000 M⁻¹ s⁻¹ | EC50 (read off the curve) [3]: ~0.05 µg/mL | EC50 (read off the curve) [4]: ~0.07 µg/mL | EC50 (read off the curve) (hFLAG-NRR-His6 (102V)): ~0.06 µg/mL | EC50 (read off the curve) [5]: 0.04 µg/mL

B6: Antibody A-2 (phage-displayed Fab clone) (Fab, V domains shown)
VH: EVQLVESGGGLVQPGGSLRLSCAASGFTFSSYWIHWVRQAPGKGLEWVARINPPNRSNQYADSVKGRFTISADTSKNTAYLQMNSLRAEDTAVYYCARGSGFRWVMDYWGQGTLVTVSS
VL: DIQMTQSPSSLSASVGDRVTITCRASQDVSTAVAWYQQKPDGTVKLLIYSASFLYSGVPSRFSGSGSGTDFTLTISSLQPEDFATYYCQQFYTTPSTFGQGTKVEIKR
IC50 [6]: 0.5 nM | IC50 [7]: 0.5 nM
